The test system of this data set is TTR. Kind of data set: TTR editing in primary human hepatocytes transfected with Spy Cas9 mRNA and sgRNAs (Table 13). The format is cell-based. To be noted: primary human hepatocytes co-transfected with Spy Cas9 mRNA (SEQ ID NO:2) and sgRNAs, 12.5 nM. Here is the method: Primary liver hepatocytes. Primary human liver hepatocytes (PHH) and primary cynomolgus liver hepatocytes (PCH) (Gibco) were cultured per the manufacturer's protocol (Invitrogen, protocol 11.28.2012). In brief, the cells were thawed and resuspended in hepatocyte thawing medium with supplements (Gibco, Cat. CM7000) followed by centrifugation at 100 g for 10 minutes for human and 80 g for 4 minutes for cyno. The supernatant was discarded and the pelleted cells resuspended in hepatocyte plating medium plus supplement pack (Invitrogen, Cat. A1217601 and CM3000). Cells were counted and plated on Bio-coat collagen I coated 96-well plates (ThermoFisher, Cat. 877272) at a density of 33,000 cells/well for human or 60,000 cells/well for cyno (or 65,000 cells/well when assaying effects on TTR protein, described further below). Plated cells were allowed to settle and adhere for 6 or 24 hours in a tissue culture incubator at 37° C. and 5% CO2 atmosphere. After incubation cells were checked for monolayer formation and media was replaced with hepatocyte culture medium with serum-free supplement pack (Invitrogen, Cat. A1217601 and CM4000).
Lipofectamine RNAiMax (ThermoFisher, Cat. 13778150) based transfections were conducted as per the manufacturer's protocol. Cells were sequentially transfected with a lipoplex containing Spy Cas9 mRNA (100 ng), Lipofectamine RNAiMax (0.4 […]) and tracer RNA ([…]), Lipofectamine RNAiMax (0.4 μL/well) and OptiMem.
Transfected cells were harvested post-transfection at 24, 48, or 72 hours. The genomic DNA was extracted from each well of a 96-well plate using 50 μL/well BuccalAmp DNA Extraction solution (Epicentre, Cat. QE09050) per manufacturer's protocol. All DNA samples were subjected to PCR and subsequent NGS analyses, as described herein.
To quantitatively determine the efficiency of editing at the target location in the genome, sequencing was utilized to identify the presence of insertions and deletions introduced by gene editing.
Primers were designed around the target site within the gene of interest (e.g. TTR), and the genomic area of interest was amplified.
Additional PCR was performed per the manufacturer's protocols (Illumina) to add chemistry for sequencing. The amplicons were sequenced on an Illumina MiSeq instrument. The reads were aligned to a reference genome (e.g., the human reference genome (hg38), the cynomologus reference genome (mf5), the rat reference genome (rn6), or the mouse reference genome (mm10)) after eliminating those having low quality scores. The resulting files containing the reads were mapped to the reference genome (BAM files), where reads that overlapped the target region of interest were selected and the number of wild type reads versus the number of reads which contain an insertion, substitution, or deletion was calculated.
The editing percentage (e.g., the “editing efficiency” or “percent editing” or “indel frequency”) is defined as the total number of sequence reads with insertions/deletions (“indels”) or substitutions over the total number of sequence reads, including wild type.
Guides in modified sgRNA format targeting human and/or cyno TTR were delivered to primary human hepatocytes and primary cyno hepatocytes as described in Example 1. Percent editing was determined for crRNAs comprising each guide sequence across each cell type and the guide sequences were then rank ordered based on highest % edit. The screening data for the guide sequences in Table 2 in both cell lines are listed below (Table 12 through 15).

Strand notation (5' to 3'): a small letter for the sugar, then the base; units joined by * are phosphorothioate-linked, units joined directly phosphodiester-linked; [ ] holds rarer units or linkages, { } end groups; capitals alone tell only the bases. m = 2'-O-methyl; r = 2'-OH (RNA)

B1: G000481: TTR sgRNA modified sequence, Human, SEQ ID No. 88; guide sequence of CR003345 (nucleic acid)
guide: mU*mC*mU*rArGrArArCrUrUrUrGrArCrCrArUrCrArGrGrUrUrUrUrArGrAmGmCmUmAmGmAmAmAmUmAmGmCrArArGrUrUrArArArArUrArArGrGrCrUrArGrUrCrCrGrUrUrArUrCrAmAmCmUmUmGmAmAmAmAmAmGmUmGmGmCmAmCmCmGmAmGmUmCmGmGmUmGmCmU*mU*mU*mU
Regarding B1, the “Avg % Deletion” value was found to be 19.77%, the “Avg % Edit” value is 34.30% and the “Avg % Insert” value is 14.62%.

B2: G000480: TTR sgRNA modified sequence, Human, SEQ ID No. 87; guide sequence of CR003353 (nucleic acid)
guide: mA*mA*mA*rGrGrCrUrGrCrUrGrArUrGrArCrArCrCrUrGrUrUrUrUrArGrAmGmCmUmAmGmAmAmAmUmAmGmCrArArGrUrUrArArArArUrArArGrGrCrUrArGrUrCrCrGrUrUrArUrCrAmAmCmUmUmGmAmAmAmAmAmGmUmGmGmCmAmCmCmGmAmGmUmCmGmGmUmGmCmU*mU*mU*mU
Consider B2, for which the “Avg % Deletion” value amounted to 13.47%, the “Avg % Edit” value is reported as 73.28% and the “Avg % Insert” value was 59.85%.

B3: G000488: TTR sgRNA modified sequence, Human, SEQ ID No. 95; guide sequence of CR003346 (nucleic acid)
guide: mA*mA*mA*rGrUrUrCrUrArGrArUrGrCrUrGrUrCrCrGrGrUrUrUrUrArGrAmGmCmUmAmGmAmAmAmUmAmGmCrArArGrUrUrArArArArUrArArGrGrCrUrArGrUrCrCrGrUrUrArUrCrAmAmCmUmUmGmAmAmAmAmAmGmUmGmGmCmAmCmCmGmAmGmUmCmGmGmUmGmCmU*mU*mU*mU
B3: the “Avg % Deletion” value is reported as 37.48%, the “Avg % Edit” value came to 49.40% and the “Avg % Insert” value amounted to 11.98%.

B4: G000494: TTR sgRNA modified sequence, Human, SEQ ID No. 101; guide sequence of CR003360 (nucleic acid)
guide: mG*mU*mG*rArGrUrCrUrGrGrArGrArGrCrUrGrCrArUrGrUrUrUrUrArGrAmGmCmUmAmGmAmAmAmUmAmGmCrArArGrUrUrArArArArUrArArGrGrCrUrArGrUrCrCrGrUrUrArUrCrAmAmCmUmUmGmAmAmAmAmAmGmUmGmGmCmAmCmCmGmAmGmUmCmGmGmUmGmCmU*mU*mU*mU
On to B4, for which the “Avg % Deletion” value stood at 1.07%, the “Avg % Edit” value was 26.22% and the “Avg % Insert” value came to 25.17%.

B5: G000489: TTR sgRNA modified sequence, Human, SEQ ID No. 96; guide sequence of CR003344 (nucleic acid)
guide: mU*mU*mU*rGrArCrCrArUrCrArGrArGrGrArCrArCrUrGrUrUrUrUrArGrAmGmCmUmAmGmAmAmAmUmAmGmCrArArGrUrUrArArArArUrArArGrGrCrUrArGrUrCrCrGrUrUrArUrCrAmAmCmUmUmGmAmAmAmAmAmGmUmGmGmCmAmCmCmGmAmGmUmCmGmGmUmGmCmU*mU*mU*mU
As to B5, the “Avg % Deletion” value was determined as 10.28%, the “Avg % Edit” value was determined as 24.25% and the “Avg % Insert” value amounted to 14.17%.

B6: G000482: TTR sgRNA modified sequence, Human, SEQ ID No. 89; guide sequence of CR003365 (nucleic acid)
guide: mU*mG*mU*rArGrArArGrGrGrArUrArUrArCrArArArGrGrUrUrUrUrArGrAmGmCmUmAmGmAmAmAmUmAmGmCrArArGrUrUrArArArArUrArArGrGrCrUrArGrUrCrCrGrUrUrArUrCrAmAmCmUmUmGmAmAmAmAmAmGmUmGmGmCmAmCmCmGmAmGmUmCmGmGmUmGmCmU*mU*mU*mU
B6: the “Avg % Deletion” value was found to be 13.25%, the “Avg % Edit” value was 40.93% and the “Avg % Insert” value amounted to 27.70%.

B7: G000499: TTR sgRNA modified sequence, Human, SEQ ID No. 106; guide sequence of CR005303 (nucleic acid)
guide: mU*mG*mA*rArUrCrCrArArGrUrGrUrCrCrUrCrUrGrArGrUrUrUrUrArGrAmGmCmUmAmGmAmAmAmUmAmGmCrArArGrUrUrArArArArUrArArGrGrCrUrArGrUrCrCrGrUrUrArUrCrAmAmCmUmUmGmAmAmAmAmAmGmUmGmGmCmAmCmCmGmAmGmUmCmGmGmUmGmCmU*mU*mU*mU
As to B7, the “Avg % Deletion” value is reported as 0.77%, the “Avg % Edit” value is 39.30% and the “Avg % Insert” value was determined as 38.58%.

These data come from US11795460B2, “Compositions and methods for TTR gene editing and treating ATTR amyloidosis” (Intellia Therapeutics, Inc., priority 2017, dated 2023).
